Key:
Assay in all cases: co-IP; receptor-mediated co-immunoprecipitation: sample (5.5 ug) with hFasRECD-Fc (8.8 ug) and Protein G conjugated magnetic beads (1.0 mg) in 1.0 ml 50 mM Tris-HCl, 150 mM NaCl (pH 7.5), 1% Nonidet P40, 0.5% sodium deoxycholate; precipitate read by SDS-PAGE with silver stain
Details in all cases: both partners purified
[1] = molecular target: T1, sulfo-Cy3-MTZ conjugated hFasLECD-TCO (human, UniProt P48023 139-281, N184Q | N250Q, cysteine in the N-terminal tag sequence modified with trans-cyclooctene-PEG3-maleimide and conjugated with sulfo-Cy3-methyltetrazine; estimated 1.5 fluorochromes per hFasLECD trimer)
T1 construct: holds the reactive cysteine; human Fas ligand extracellular domain, residues 139-281, with N184Q and N250Q; Derived from NFK3G1CG4-hFasLECD; Not every subunit of the trimer carries the fluorochrome; also called Sulfo-Cy3-MT-hFasLECD; sulfo-Cy3 conjugated hFasLECD; source: P. pastoris secretory expression, purified (cation exchange); modified with TCO-PEG3-MAL, reacted with sulfo-Cy3-MTZ, purified …
T1 sequence: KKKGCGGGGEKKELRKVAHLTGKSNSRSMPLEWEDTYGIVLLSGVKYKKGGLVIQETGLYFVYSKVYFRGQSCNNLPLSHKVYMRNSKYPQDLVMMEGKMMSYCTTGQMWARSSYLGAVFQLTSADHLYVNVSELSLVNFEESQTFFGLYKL

[2] = molecular target: T2, TCO-derivative of NFK3G1CG4-hFasLECD (human, UniProt P48023 139-281, N184Q | N250Q, cysteine in the N-terminal tag sequence modified with trans-cyclooctene-PEG3-maleimide)
T2 construct: holds the reactive cysteine; human Fas ligand extracellular domain, residues 139-281, with N184Q and N250Q; also called hFasLECD-TCO; source: P. pastoris secretory expression, purified (cation exchange); modified with TCO-PEG3-MAL, size-exclusion chromatography; not shown: FLAG, N-terminal, kept
T2 sequence: T1 sequence

[3] = molecular target: T3, sulfo-Cy3-TCO conjugated hFasLECD-MTZ (human, UniProt P48023 139-281, N184Q | N250Q, cysteine in the N-terminal tag sequence modified with methyltetrazine-PEG4-maleimide and conjugated with sulfo-Cy3-trans-cyclooctene; estimated 1.6 fluorochromes per hFasLECD trimer)
T3 construct: holds the reactive cysteine; human Fas ligand extracellular domain, residues 139-281, with N184Q and N250Q; Derived from NFK3G1CG4-hFasLECD; Not every subunit of the trimer carries the fluorochrome; also called Sulfo-Cy3-TM-hFasLECD; sulfo-Cy3 conjugated hFasLECD; source: P. pastoris secretory expression, purified (cation exchange); modified with MTZ-PEG4-MAL, reacted with sulfo-Cy3-TCO, purified …
T3 sequence: T1 sequence

[4] = molecular target: T4, Avidin-hFasLECD conjugate (human | chicken, UniProt P48023 139-281; P02701 25-152, N184Q | N250Q, cysteine in the N-terminal tag sequence modified with trans-cyclooctene-PEG3-maleimide, joined through the TCO-MTZ reaction to an MTZ-PEG4 group on avidin | lysine residues modified with …)
T4 construct: holds the reactive cysteine; human Fas ligand extracellular domain, residues 139-281, with N184Q and N250Q; avidin from chicken egg white, native homotetramer; Covalent chemical conjugate, thought to be one avidin tetramer to one hFasLECD trimer; on SDS-PAGE mainly one avidin subunit joined to one hFasLECD subunit, less of one avidin subunit with two hFasLECD subunits; not shown: FLAG, …
T4 sequence (P02701 25-152, stated change not applied, one chain of several): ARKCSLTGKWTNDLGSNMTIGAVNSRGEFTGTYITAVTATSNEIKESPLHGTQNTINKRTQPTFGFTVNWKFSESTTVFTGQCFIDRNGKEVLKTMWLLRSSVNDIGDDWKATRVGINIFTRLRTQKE

Measured: binding result

B1: human Fas receptor extracellular domain-human IgG1 Fc domain fusion protein (Fc fusion, UniProt P25445 26-173, looked up)
chain: QVTDINSKGLELRKTVTTVETQNLEGLHHDGQFCHKPCPPGERKARDCTVNGDEPDCVPCQEGKEYTDKAHFSSKCRRCRLCDEGHGLEVEINCTRTQNTKCRCKPNFFCNSTVCEHCDPCTKCEHGIIKECTLTSNTKCKEEGSRSN
notes: human Fas receptor (hFasR) extracellular domain; also called hFasRECD-Fc; source: baculovirus - Bombyx mori expression system, purified
binds: [1] | [2] | [3] | [4]

From article PMC5496246, “Site-specific chemical conjugation of human Fas ligand extracellular domain using trans-cyclooctene – methyltetrazine reactions” (BMC Biotechnology, 2017)
